{
  "source": "paper PMC11169542",
  "about": "“A probe for NIR-II imaging and multimodal analysis of early Alzheimer’s disease by targeting CTGF” (Nature Communications, 2024)",
  "key": {"CTGF": {"tested_on": "CTGF", "assay": "Quantitating CTGF in DGC-labelled cells by ICP-MS", "type": "cell-based", "protocol": "After U87MG, SH-SY5Y, and CTX TNA2 cells were imaged by a laser confocal microscopy system, these cells labeled with DGC were quantitatively analyzed by an ICP-MS system (Thermo Elemental X7, USA). Each cell group in the glass vials was digested by adding 5 mL aqua regia (HCl: HNO3 = 3:1) overnight. Subsequently, the aqua regia was heated to evaporate to the last drop to be diluted by a mixture of 2% HNO3 and 1% HCl. A standard curve of Au was made to quantify the concentration of Au in different cells. ICP-MS was used to test the Au signal in triplicates."}, "[1]": {"assay": "Effect of DGC on hematology of mice", "type": "in vivo, C57BL/6J mice", "conditions": "for Mean hemoglobin content of red blood cells (MCH): in pg (unit assumed)", "source_text": "In order to clarify the NIR-II signal in AD brains when in vivo imaging is arisen from the DGC probe that bound to CTGF, we selected 3-month-old APP/PS1 mice representing early-stage AD and the age-matched WT mice as control to performed ex vivo multimodal analysis of the brain sections. […] To exclude the influence of vascular retention, we emptied the cerebral vessels by cardiac perfusion and performed ex vivo imaging of the brains. […] For brain sections made from AD mice after tail vein injection of DGC, the red fluorescence observation and LA-ICP-TOF-MS of DGC, as well as a POD-like catalysis test were performed. […] In Fig. 6c, the colocalization of DGC (red fluorescence) and CTGF (green fluorescence) on the ex vivo brain sections confirmed the specificity of DGC targeting CTGF in vivo. To further identify the cellular target of DGC in the brain of APP/PS1 mice, we carried out immunofluorescence staining on the ex vivo brain sections after tail vein injection of DGC where cell-specific fluorescent antibodies for microglia (Iba 1), neurons (NeuN), vascular endothelial cell (CD31) and reactive astrocytes (GFAP) were applied. In Fig. 6d, […] co-localizes with GFAP-positive active astrocytes and CD31-positive microvessels, but not with neurons or microglia. […] The biosafety of DGC in C57BL/6J mice under the NIR-II imaging condition was evaluated by blood tests (blood cells and biochemical analysis) and organ pathological analysis (H&E staining)."}, "[2]": {"assay": "Parallel artificial membrane permeability assay (PAMPA) mimicking BBB", "type": "in vitro ADME", "conditions": "for PAMPA permeability Pe: precoated PAMPA plate, 40 μM in PBS, 5 h, room temperature, ICP-MS", "protocol": "A parallel artificial membrane permeability assay was performed in a 96-well precoated PAMPA plate system (Corning Gentest # 353015). The experimental solutions of DGC were prepared by diluting the stock solutions (10 mM) in PBS at a final concentration of 40 μM and then added to the donor portion of the plate (300 μL/well), while PBS (200 μL/well) was added to the acceptor portion, and the DMSO concentration was lower than 1%. The filter plate was then coupled with the receiver plate, and the plate assembly was incubated at room temperature without agitation for 5 h. Samples of the initial donor solution (C0) were collected and stored at 4 °C. At the end of the incubation, samples were collected from the donor and acceptor plates and then added to aqua regia (HCl: HNO3, volume ratio = 3:1). The C0 samples were treated similarly. The final concentrations of DGC in the donor, acceptor, and T0 wells were quantified by the ICP-MS system (Thermo Elemental X7, USA). The results were used to calculate an effective permeability (Pe, cm/s) value. Permeability of DGC was calculated using the following Eq. (1):1 Pe={-ln[1-CA(t)/Ceq]}/[A×(1/VD+1/VA)×t] Where A = filter area (0.3 cm^2), t = incubation time (seconds), CA(t) = compound concentration in acceptor well at time t, VD = donor well volume (0.3 mL), VA = acceptor well volume (0.2 mL), CD(t) = compound concentration in donor well at time t, and Ceq was calculated using the following Eq. (2):2 Ceq=[CD(t)×VD+CA(t)×VA]/(VD+VA)"}, "[3]": {"conditions": "DGC group, mean of 3 mice, in 10^9/L (unit assumed)"}, "[4]": {"conditions": "DGC group, mean of 3 mice, in % (unit assumed)"}, "[5]": {"conditions": "DGC group, mean of 3 mice, in fL (unit assumed)"}, "[6]": {"conditions": "DGC group, mice 1, in fL (unit assumed)"}, "[7]": {"conditions": "DGC group, mice 2, in fL (unit assumed)"}, "[8]": {"conditions": "DGC group, mice 3, in fL (unit assumed)"}},
  "note": "Ends that are not written are not given here.",
  "data": [
    {"substance": "DGC: CTGF-targeting peptide-coated gold nanocluster: one Au26 gold nanocluster coated by eight DAG cyclic peptides, NIR-II and red fluorescence (CDAGRKQKC; also: cyclic peptide, ring not given here, eight peptides on one Au26 nanocluster via Cys Au-S bonds)", "values": [
      {"measurement": "ICP-MS DGC (Au) content per cell", "setting": "CTGF; DGC-labelled CTX TNA2 cells, replicate 1", "result": 1.359},
      {"measurement": "ICP-MS DGC (Au) content per cell", "setting": "CTGF; DGC-labelled CTX TNA2 cells, replicate 2", "result": 1.246},
      {"measurement": "ICP-MS DGC (Au) content per cell", "setting": "CTGF; DGC-labelled CTX TNA2 cells, replicate 3", "result": 1.418},
      {"measurement": "ICP-MS DGC (Au) content per cell", "setting": "CTGF; DGC-labelled SH-SY5Y cells, replicate 1", "result": 3.579},
      {"measurement": "ICP-MS DGC (Au) content per cell", "setting": "CTGF; DGC-labelled SH-SY5Y cells, replicate 2", "result": 3.885},
      {"measurement": "ICP-MS DGC (Au) content per cell", "setting": "CTGF; DGC-labelled SH-SY5Y cells, replicate 3", "result": 3.913},
      {"measurement": "ICP-MS DGC (Au) content per cell", "setting": "CTGF; DGC-labelled U87MG cells, replicate 1", "result": 9.5834},
      {"measurement": "ICP-MS DGC (Au) content per cell", "setting": "CTGF; DGC-labelled U87MG cells, replicate 2", "result": 9.979},
      {"measurement": "ICP-MS DGC (Au) content per cell", "setting": "CTGF; DGC-labelled U87MG cells, replicate 3", "result": 9.837},
      {"measurement": "Basophil granulocyte count (Bas#)", "setting": "[1]; C57BL/6J mice, 20 mg/kg DGC, n = 3, normal range 0.00 - 0.12", "result": "0.02 ± 0.01 109/L"},
      {"measurement": "Eosinophil granulocyte count (Eos#)", "setting": "[1]; C57BL/6J mice, 20 mg/kg DGC, n = 3, normal range 0.00 - 0.51", "result": "0.04 ± 0.02 109/L"},
      {"measurement": "Percentage of Basophil granulocyte (Bas%)", "setting": "[1]; C57BL/6J mice, 20 mg/kg DGC, n = 3, normal range 0.0 - 1.5", "result": "0.27 ± 0.06", "unit": "%"},
      {"measurement": "Percentage of eosinophil granulocyte (Eos%)", "setting": "[1]; C57BL/6J mice, 20 mg/kg DGC, n = 3, normal range 0.0 - 7.5", "result": "0.47 ± 0.23", "unit": "%"},
      {"measurement": "Monocytes count (Mon#)", "setting": "[1]; C57BL/6J mice, 20 mg/kg DGC, n = 3, normal range 0.04 - 1.40", "result": "0.25 ± 0.1 109/L"},
      {"measurement": "Percentage of monocytes (Mon%)", "setting": "[1]; C57BL/6J mice, 20 mg/kg DGC, n = 3, normal range 0.9 - 18.0", "result": "3.07 ± 0.84", "unit": "%"},
      {"measurement": "Percentage of neutrophil (Neu%)", "setting": "[1]; C57BL/6J mice, 20 mg/kg DGC, n = 3, normal range 6.5 - 50.0", "result": "13.2 ± 1.31", "unit": "%"},
      {"measurement": "Percentage of lymphocyte (Lym%)", "setting": "[1]; C57BL/6J mice, 20 mg/kg DGC, n = 3, normal range 40.0 - 92.0", "result": "83 ± 2.08", "unit": "%"},
      {"measurement": "Mean concentration of red blood cell hemoglobin (MCHC)", "setting": "[1]; DGC group, mean of 3 mice", "result": "315.67 ± 5.69"},
      {"measurement": "Width of platelet distribution (PDW)", "setting": "[1]; DGC group, mean of 3 mice", "result": "15.23 ± 0.25"},
      {"measurement": "Basophil granulocyte count (Bas#)", "setting": "[1]; [3]", "result": "0.02 ± 0.01"},
      {"measurement": "Eosinophil granulocyte count (Eos#)", "setting": "[1]; [3]", "result": "0.04 ± 0.02"},
      {"measurement": "Lymphocyte count (Lym#)", "setting": "[1]; [3]", "result": "6.65 ± 0.78"},
      {"measurement": "Monocytes count (Mon#)", "setting": "[1]; [3]", "result": "0.25 ± 0.1"},
      {"measurement": "Neutrophil count (Neu#)", "setting": "[1]; [3]", "result": "1.07 ± 0.24"},
      {"measurement": "Platelet count (PLT)", "setting": "[1]; [3]", "result": "1228.67 ± 179.01"},
      {"measurement": "White blood cell count (WBC)", "setting": "[1]; [3]", "result": "8.03 ± 1.12"},
      {"measurement": "Red blood cell count (RBC)", "setting": "[1]; DGC group, mean of 3 mice, in 10^12/L (unit assumed)", "result": "10.16 ± 0.42"},
      {"measurement": "Coefficient of variation of red blood cell distribution width (RDW-CV)", "setting": "[1]; [4]", "result": "13.13 ± 1"},
      {"measurement": "Hematocrit (HCT)", "setting": "[1]; [4]", "result": "51.2 ± 1.93"},
      {"measurement": "Mean corpuscular volume (MCV)", "setting": "[1]; [5]", "result": "50.4 ± 0.17"},
      {"measurement": "Mean platelet volume (MPV)", "setting": "[1]; [5]", "result": "5.53 ± 0.15"},
      {"measurement": "Standard deviation of red blood cell distribution width (RDW-SD)", "setting": "[1]; [5]", "result": "27.8 ± 2.1"},
      {"measurement": "Hemoglobin (HGB)", "setting": "[1]; DGC group, mean of 3 mice, in g/L (unit assumed)", "result": "161.67 ± 8.02"},
      {"measurement": "Mean hemoglobin content of red blood cells (MCH)", "setting": "[1]; DGC group, mean of 3 mice", "result": "15.93 ± 0.25"},
      {"measurement": "Mean concentration of red blood cell hemoglobin (MCHC)", "setting": "[1]; DGC group, mice 1", "result": 311},
      {"measurement": "Mean corpuscular volume (MCV)", "setting": "[1]; [6]", "result": 50.5},
      {"measurement": "Mean platelet volume (MPV)", "setting": "[1]; [6]", "result": 5.7},
      {"measurement": "Mean hemoglobin content of red blood cells (MCH)", "setting": "[1]; DGC group, mice 1", "result": 15.7},
      {"measurement": "Mean concentration of red blood cell hemoglobin (MCHC)", "setting": "[1]; DGC group, mice 2", "result": 322},
      {"measurement": "Mean corpuscular volume (MCV)", "setting": "[1]; [7]", "result": 50.2},
      {"measurement": "Mean platelet volume (MPV)", "setting": "[1]; [7]", "result": 5.4},
      {"measurement": "Mean hemoglobin content of red blood cells (MCH)", "setting": "[1]; DGC group, mice 2", "result": 16.2},
      {"measurement": "Mean concentration of red blood cell hemoglobin (MCHC)", "setting": "[1]; DGC group, mice 3", "result": 314},
      {"measurement": "Mean corpuscular volume (MCV)", "setting": "[1]; [8]", "result": 50.5},
      {"measurement": "Mean platelet volume (MPV)", "setting": "[1]; [8]", "result": 5.5},
      {"measurement": "Mean hemoglobin content of red blood cells (MCH)", "setting": "[1]; DGC group, mice 3", "result": 15.9},
      {"measurement": "BBB permeability class (PAMPA)", "setting": "[2]; 40 μM", "result": "high BBB permeability"},
      {"measurement": "PAMPA permeability Mean Pe", "setting": "[2]; at several concentrations", "result": "higher than 1.5 * 10^-6 cm/s"},
      {"measurement": "PAMPA permeability Pe", "setting": "[2]; replicate 1", "result": 2.121, "unit": "×10⁻⁶ cm/s"},
      {"measurement": "PAMPA permeability Pe", "setting": "[2]; replicate 2", "result": 2.6, "unit": "×10⁻⁶ cm/s"},
      {"measurement": "PAMPA permeability Pe", "setting": "[2]; replicate 3", "result": 1.724, "unit": "×10⁻⁶ cm/s"}
    ]}
  ]
}
